Source: patent publication US9266964

biological target: human plasma kallikrein (human, UniProt P03952 20-390; P03952 391-638); assay: cell-based or functional assay
Sequence (P03952 20-390, chain 1 of 2): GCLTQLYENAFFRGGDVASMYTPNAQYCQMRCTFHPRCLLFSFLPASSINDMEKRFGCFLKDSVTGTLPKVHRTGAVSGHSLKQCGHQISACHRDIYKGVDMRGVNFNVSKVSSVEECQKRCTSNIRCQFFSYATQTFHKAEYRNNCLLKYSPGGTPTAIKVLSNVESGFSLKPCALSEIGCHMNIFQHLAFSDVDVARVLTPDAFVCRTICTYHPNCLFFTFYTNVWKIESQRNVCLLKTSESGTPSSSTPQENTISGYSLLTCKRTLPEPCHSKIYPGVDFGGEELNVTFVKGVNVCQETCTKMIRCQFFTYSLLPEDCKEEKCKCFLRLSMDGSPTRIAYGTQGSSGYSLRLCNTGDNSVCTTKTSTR
Sequence (P03952 391-638, chain 2 of 2): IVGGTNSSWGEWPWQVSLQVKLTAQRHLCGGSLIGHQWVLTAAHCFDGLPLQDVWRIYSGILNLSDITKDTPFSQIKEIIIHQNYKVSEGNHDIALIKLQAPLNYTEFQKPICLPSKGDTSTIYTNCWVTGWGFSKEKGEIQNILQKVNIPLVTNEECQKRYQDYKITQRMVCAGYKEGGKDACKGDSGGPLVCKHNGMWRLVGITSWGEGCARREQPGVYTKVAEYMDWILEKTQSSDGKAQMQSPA

| Binder | % inhibition at 10 nM [%] |
| --- | --- |
| M209-G07 (Fab, V domains shown) VH: EVQLLESGGGLVQPGGSLRLSCAASGFTFSHYLMTWVRQAPGKGLEWVSYISPSGGHTIYADSVKGRFTISRDNSKNTLYLQMNSLRAEDTAVYYCARVARGIAARSRTSYFDTWGQGTLVTVSS VL: DIQMTQSPGTLSLSPGERATLSCRTSQFVNSNYLAWYQQTPGQAPRLLIYGASSRATGIPDRFSGTGYGTDFTLTISRLEPEDYGTYYCQQSSRTPWTFGQGTRVEIK | 89.8 |
| M205-A02 (Fab, V domains shown) VH: EVQLLESGGGLVQPGGSLRLSCAASGFTFSTYLMAWVRQAPGKGLEWVSGIVSSGGRTLYADSVKGRFTISRDNSKNTLYLQMNSLRAEDTAVYYCARVARGIAARSRTSYFDYWGQGTLVTVSS VL: DIQMTQSPGTLSLSPGERATLSCRTSQFVNSNYLAWYQQTPGQAPRLLIYGASSRATGIPDRFSGTGYGTDFTLTISRLEPEDYGTYYCQQSSRTPWTFGQGTRVEIK | 80.3 |
| M205-H01 (Fab, V domains shown) VH: EVQLLESGGGLVQPGGSLRLSCAASGFTFSNYTMQWVRQAPGKGLQWVSYISPSGGYTGYADSVKGRFTISRDNSKNTLYLQMNSLRAEDTAVYYCARVARGIAARSRTSYFDYWGQGTLVTVSS VL: DIQMTQSPGTLSLSPGERATLSCRTSQFVNSNYLAWYQQTPGQAPRLLIYGASSRATGIPDRFSGTGYGTDFTLTISRLEPEDYGTYYCQQSSRTPWTFGQGTRVEIK | 77.1 |
| M205-C11 (Fab, V domains shown) VH: EVQLLESGGGLVQPGGSLRLSCAASGFTFSQYMMMWVRQAPGKGLEWVSRISPSGGSTLYADSVKGRFTISRDNSKNTLYLQMNSLRAEDTAVYYCARVARGIAARSRTSYFDYWGQGTLVTVSS VL: DIQMTQSPGTLSLSPGERATLSCRTSQFVNSNYLAWYQQTPGQAPRLLIYGASSRATGIPDRFSGTGYGTDFTLTISRLEPEDYGTYYCQQSSRTPWTFGQGTRVEIK | 86.5 |
| M206-H01 (Fab, V domains shown) VH: EVQLLESGGGLVQPGGSLRLSCAASGFTFSEYMMVWVRQAPGKGLEWVSRISPSGGTTEYADSVKGRFTISRDNSKNTLYLQMNSLRAEDTAVYYCARVARGIAARSRTSYFDYWGQGTLVTVSS VL: DIQMTQSPGTLSLSPGERATLSCRTSQFVNSNYLAWYQQTPGQAPRLLIYGASSRATGIPDRFSGTGYGTDFTLTISRLEPEDYGTYYCQQSSRTPWTFGQGTRVEIK | 87.6 |
| M206-H05 (Fab, V domains shown) VH: EVQLLESGGGLVQPGGSLRLSCAASGFTFSGYKMQWVRQAPGKGLEWVSSISPSGGITMYADSVKGRFTISRDNSKNTLYLQMNSLRAEDTAVYYCARVARGIAARSRTSYFDYWGQGTLVTVSS VL: DIQMTQSPGTLSLSPGERATLSCRTSQFVNSNYLAWYQQTPGQAPRLLIYGASSRATGIPDRFSGTGYGTDFTLTISRLEPEDYGTYYCQQSSRTPWTFGQGTRVEIK | 82.5 |
| M208-A10 (Fab, V domains shown) VH: EVQLLESGGGLVQPGGSLRLSCAASGFTFSHYLMTWVRQAPGKGLEWVSYISPSGGHTIYADSVKGRFTISRDNSKNTLYLQMNSLRAEDTAVYYCARVARGIAARSRTSQFDHWGQGTLVTVSS VL: DIQMTQSPGTLSLSPGERATLSCRTSQFVNSNYLAWYQQTPGQAPRLLIYGASSRATGIPDRFSGTGYGTDFTLTISRLEPEDYGTYYCQQSSRTPWTFGQGTRVEIK | 78.5 |
| M209-H09 (Fab, V domains shown) VH: EVQLLESGGGLVQPGGSLRLSCAASGFTFSHYLMTWVRQAPGKGLEWVSYISPSGGHTIYADSVKGRFTISRDNSKNTLYLQMNSLRAEDTAVYYCARVARGIAARSRTVYFDHWGQGTLVTVSS VL: DIQMTQSPGTLSLSPGERATLSCRTSQFVNSNYLAWYQQTPGQAPRLLIYGASSRATGIPDRFSGTGYGTDFTLTISRLEPEDYGTYYCQQSSRTPWTFGQGTRVEIK | 85.3 |
| M204-E12 (Fab, V domains shown) VH: EVQLLESGGGLVQPGGSLRLSCAASGFTFSTYMMQWVRQAPGKGLEWVSYIGPSGGKTDYADSVKGRFTISRDNSKNTLYLQMNSLRAEDTAVYYCARVARGIAARSRTSYFDYWGQGTLVTVSS VL: DIQMTQSPGTLSLSPGERATLSCRTSQFVNSNYLAWYQQTPGQAPRLLIYGASSRATGIPDRFSGTGYGTDFTLTISRLEPEDYGTYYCQQSSRTPWTFGQGTRVEIK | 84.1 |
| M207-A02 (Fab, V domains shown) VH: EVQLLESGGGLVQPGGSLRLSCAASGFTFSHYLMTWVRQAPGKGLEWVSYISPSGGHTIYADSVKGRFTISRDNSKNTLYLQMNSLRAEDTALYYCARVARGIAARSRTINLDYWGQGTLVTVSS VL: DIQMTQSPGTLSLSPGERATLSCRTSQFVNSNYLAWYQQTPGQAPRLLIYGASSRATGIPDRFSGTGYGTDFTLTISRLEPEDYGTYYCQQSSRTPWTFGQGTRVEIK | 76.6 |
| M205-H08 (Fab, V domains shown) VH: EVQLLESGGGLVQPGGSLRLSCAASGFTFSDYMMMWVRQAPGKGLEWVSSIVPSGGHTQYADSVKGRFTISRDNSKNTLYLQMNSLRAEDTAVYYCARVARGIAARSRTSYFDYWGQGTLVTVSS VL: DIQMTQSPGTLSLSPGERATLSCRTSQFVNSNYLAWYQQTPGQAPRLLIYGASSRATGIPDRFSGTGYGTDFTLTISRLEPEDYGTYYCQQSSRTPWTFGQGTRVEIK | 85.9 |
| M206-F09 (Fab, V domains shown) VH: EVQLLESGGGLVQPGGSLRLSCAASGFTFSVYMMSWVRQAPGKGLEWVSSIVPSGGSTTYADSVKGRFTISRDNSKNTLYLQMNSLRAEDTAVYYCARVARGIAARSRTSYFDYWGQGTLVTVSS VL: DIQMTQSPGTLSLSPGERATLSCRTSQFVNSNYLAWYQQTPGQAPRLLIYGASSRATGIPDRFSGTGYGTDFTLTISRLEPEDYGTYYCQQSSRTPWTFGQGTRVEIK | 86.8 |
| M205-E11 (Fab, V domains shown) VH: EVQLLESGGGLVQPGGSLRLSCAASGFTFSNYTMGWVRQAPGKGLEWVSSISPSGGKTDYADSVKGRFTISRDNSKNTLYLQMNSLRAEDTAVYYCARVARGIAARSRTSYFDYWGQGTLVTVSS VL: DIQMTQSPGTLSLSPGERATLSCRTSQFVNSNYLAWYQQTPGQAPRLLIYGASSRATGIPDRFSGTGYGTDFTLTISRLEPEDYGTYYCQQSSRTPWTFGQGTRVEIK | 78.2 |
| M209-H03 (Fab, V domains shown) VH: EVQLLESGGGLVQPGGSLRLSCAASGFTFSHYLMTWVRQAPGKGLEWVSYISPSGGHTIYADSVKGRFTISRDNSKNTLYLQMNSLRAEDTAVYYCARVAQGIAARSRTTQFDYWGQGTLVTVSS VL: DIQMTQSPGTLSLSPGERATLSCRTSQFVNSNYLAWYQQTPGQAPRLLIYGASSRATGIPDRFSGTGYGTDFTLTISRLEPEDYGTYYCQQSSRTPWTFGQGTRVEIK | 82.6 |
| M209-C02 (Fab, V domains shown) VH: EVQLLESGGGLVQPGGSLRLSCAASGFTFSHYLMTWVRQAPGKGLEWVSYISPSGGHTIYADSVKGRFTISRDNSKNTLYLQMNSLRAEDTAVYYCARVARGIAYRRRTSYFDYWGQGTLVTVSS VL: DIQMTQSPGTLSLSPGERATLSCRTSQFVNSNYLAWYQQTPGQAPRLLIYGASSRATGIPDRFSGTGYGTDFTLTISRLEPEDYGTYYCQQSSRTPWTFGQGTRVEIK | 86.8 |
| M209-D12 (Fab, V domains shown) VH: EVQLLESGGGLVQPGGSLRLSCAASGFTFSHYLMTWVRQAPGKGLEWVSYISPSGGHTIYADSVKGRFTISRDNSKNTLYLQMNSLRAEDTAVYYCATVARGIAARSRTSYFDQWGQGTLVTVSS VL: DIQMTQSPGTLSLSPGERATLSCRTSQFVNSNYLAWYQQTPGQAPRLLIYGASSRATGIPDRFSGTGYGTDFTLTISRLEPEDYGTYYCQQSSRTPWTFGQGTRVEIK | 85.4 |
| M204-A02 (Fab, V domains shown) VH: EVQLLESGGGLVQPGGSLRLSCAASGFTFSDYMMTWVRQAPGKGLQWVSYISPSGGLTSYADSVKGRFTISRDNSKNTLYLQMNSLRAEDTAVYYCARVARGIAARSRTSYFDYWGQGTLVTVSS VL: DIQMTQSPGTLSLSPGERATLSCRTSQFVNSNYLAWYQQTPGQAPRLLIYGASSRATGIPDRFSGTGYGTDFTLTISRLEPEDYGTYYCQQSSRTPWTFGQGTRVEIK | 89.5 |
| M208-G02 (Fab, V domains shown) VH: EVQLLESGGGLVQPGGSLRLSCAASGFTFSHYLMTWVRQAPGKGLEWVSYISPSGGHTIYADSVKGRFTISRDNSKNTLYLQMNSLRAEDTAVYYCARVARGIADRSRTSYSDYWGQGTLVTVSS VL: DIQMTQSPGTLSLSPGERATLSCRTSQFVNSNYLAWYQQTPGQAPRLLIYGASSRATGIPDRFSGTGYGTDFTLTISRLEPEDYGTYYCQQSSRTPWTFGQGTRVEIK | 86.7 |
| M210-H01 (Fab, V domains shown) VH: EVQLLESGGGLVQPGGSLRLSCAASGFTFSHYLMTWVRQAPGKGLEWVSYISPSGGHTIYADSVKGRFTISRDNSKNTLYLQMNSLRAEDTAVYYCARVARGIAARSRNSQQDYWGQGTLVTVSS VL: DIQMTQSPGTLSLSPGERATLSCRTSQFVNSNYLAWYQQTPGQAPRLLIYGASSRATGIPDRFSGTGYGTDFTLTISRLEPEDYGTYYCQQSSRTPWTFGQGTRVEIK | 85.5 |
| M206-E02 (Fab, V domains shown) VH: EVQLLESGGGLVQPGGSLRLSCAASGFTFSEYMMMWVRQAPGKGLEWVSVISPSGGQTHYADSVKGRFTISRDNSKNTLYLQMNSLRAEDTAVYYCARVARGIAARSRTSYFDYWGQGTLVTVSS VL: DIQMTQSPGTLSLSPGERATLSCRTSQFVNSNYLAWYQQTPGQAPRLLIYGASSRATGIPDRFSGTGYGTDFTLTISRLEPEDYGTYYCQQSSRTPWTFGQGTRVEIK | 77.6 |
| M209-B11 (Fab, V domains shown) VH: EVQLLESGGGLVQPGGSLRLSCAASGFTFSHYLMTWVRQAPGKGLEWVSYISPSGGHTIYADSVKGRFTISRDNSKNTLYLQMNSLRAEDTAVYYCARVARGIAARSRTRYIDQWGQGTLVTVSS VL: DIQMTQSPGTLSLSPGERATLSCRTSQFVNSNYLAWYQQTPGQAPRLLIYGASSRATGIPDRFSGTGYGTDFTLTISRLEPEDYGTYYCQQSSRTPWTFGQGTRVEIK | 87.3 |
